Data set [1] concerns TM^wt/wt endothelial cells. Description: Static adhesion assay: murine PMNs on endothelial cells from TM^wt/wt mice. Conditions: addition of PPACK to exclude thrombin effect. The format is cell-based. The text has this:
Table 8: Static adhesion assay. […] This is a representative experiment performed 3 times, on 3 different clones each. For each experiment, 5 wells were used for each condition, and adherent leukocytes in 15 microscopic fields were counted.
Since TM expression is not restricted to vascular endothelial cells, but is also synthesized by other cells including neutrophils and monocytes, we considered the possibility that the increase in leukocyte efflux into the lungs might be a result of TM alterations on either the neutrophils and/or the vascular endothelium. fEND.5 cells are an established PymT transformed murine endothelial cell line that expresses full-length, functional TM on the cell surface. […] Adhesion and rolling of neutrophils to transformed endothelial cells derived from the TM^wt/wt and TM^LeD/LeD mice were consequently evaluated. […] This was determined not to be an endothelial cell clone-specific artifact, as 3 different clones of endothelial cells were evaluated with similar results. There was also a significant 3-fold increase in PMN and lymphocyte adhesion to resting TM^LeD/LeD endothelial cells as compared to TM^wt/wt endothelial cells (Table 8). […]
Neutrophils and lymphocytes were isolated from bone marrow according to the method of Lowell and Berton ^35. Each population was assessed to be over 95% pure by microscopic analysis after Wright staining. […]

The subject of another data set is HUVECs. Kind of data set: Rescue of HUVECs from serum starvation-induced cell death. As to conditions: 3 days of serum deprivation. The class given is cell-based, human. The method, then: Because endothelial cell death is a pathway of sustained tissue damage, we evaluated whether TMlec155 was capable of rescuing HUVECs from serum starvation-induced cell death. After 3 days of serum deprivation, over 95% of HUVECs died. Serum starvation with the addition of TMlec155 at concentrations of 1, 10 and 20 μg/ml rescued 2±0.6%, 18±7% and 34±14% of the cells (p=0.69, p<0.05, p<0.05, respectively compared with serum-starved controls), showing that soluble TM rnay also have pro-survival properties.

The subject of a further data set is pERK1/2 and NFκB. Description: TNFα-induced pERK1/2 and NFκB in HUVECs. The class given is cell-based, human. Conditions: TNFα 200 U/ml for 20 minutes. The method, then:
We predicted that soluble lectin-like domain of TM would suppress PMN adhesion by altering regulation of MAP kinase pathways in ECs. Therefore, HUVECs were exposed to TNFα (200 U/ml) for 20 minutes. […] Total ERK1/2 levels remained unchanged.

Data set [2] relates to TM^LeD/LeD endothelial cells. Kind of data set: Static adhesion assay: murine PMNs on endothelial cells from TM^LeD/LeD mice. Conditions: for PMN Adhesion (# per 15 HPFs): PMNs from wild-type mice. The format is cell-based. The method, then:
Constitutive levels of circulating soluble TM, composed of proteolytic components of the extracellular domains, are found in the plasma of normal individuals, while quantitative changes occur in different disease states. Purified recombinant TMlec155 was prepared using the Pichia pastoris expression system, and further purified by a series of chromatographic steps as detailed in the methods. In a static adhesion assay on TM^Led/Led endothelial cells, PMNs were co-incubated with TMlec155 at two concentrations. Adhesion of PMNs to the resting endothelial cells was, as before, increased as compared with adhesion to wild-type endothelial cells (Table 9). […] The degree of suppression of adhesion was almost to the level of adhesion to wild-type endothelial cells. […] The role of recombinant TMlec155 in vivo was tested by injecting wild-type mice with LPS 20 μg/gm i.p., followed 5 minutes later with an intravenous bolus of recombinant TMlec155 or buffer alone. After a further 3 hours, the serum cytokine response was determined.
Endothelial tumors were induced to grow in 7 day old mice following intraperitoneal (i.p.) injection of retrovirus carrying the middle T antigen of murine Polyomavirus (PymT). After 10-14 days, the tumors were excised, and endothelial cells were isolated^32.33. Primary cultures of lymphatic endothelial cells were isolated from intraperitoneal lymphangiomas, growth of which was induced by injection of incomplete Freund's adjuvant exactly as described^34. Cells were cultured on collagen or gelatin coated plates in M199 media supplemented with 20% fetal bovine serum, porcine heparin 0.1 mg/ml, endothelial cell mitogen 5 μg/ml (Biomedical Technologies Inc., Stoughton, Mass.), 100 μg/ml penicillin and streptomycin 100 μg/ml. Cell cultures were incubated at 37° C. in a humidified atmosphere of 5% CO2 and 95% air, and experiments were performed at passage 3-8. Over 95% of the cells immuno-stained positively for TM and vWF, confirming the endothelial origin and purity.
Neutrophils and lymphocytes were isolated from bone marrow according to the method of Lowell and Berton ^35. Each population was assessed to be over 95% pure by microscopic analysis after Wright staining.
Endothelial cells were plated in 24-well dishes and grown to confluence. Following 2 washes of the cell monolayers with HBSS, freshly prepared BCECF-AM-labeled, neutrophils derived from human peripheral blood, or murine bone marrow-derived PMNs or lymphocytes 50,000 per well, were added in a final volume of 1 ml for 30 minutes at room temperature. The media was decanted and the cell monolayers were gently washed three times with HBSS after which the adherent fluorescently labeled leukocytes were counted with an inverted epiflourescence microscope as described above.

For another data set, the system named is IL-1β. Kind of data set: Cytokine response in vivo after LPS i.p. in wild-type mice. Conditions: LPS 20 μg/gm i.p. The procedure: Table 10: Effect of recombinant TMlec155 on cytokine response in vivo. Wild-type mice were treated with LPS 20 μg/gm i.p., following 5 min later with the noted treatment. Plasma levels of IL-1b were measured 3 hours later
Constitutive levels of circulating soluble TM, composed of proteolytic components of the extracellular domains, are found in the plasma of normal individuals, while quantitative changes occur in different disease states. Purified recombinant TMlec155 was prepared using the Pichia pastoris expression system, and further purified by a series of chromatographic steps as detailed in the methods. In a static adhesion assay on TM^Led/Led endothelial cells, PMNs were co-incubated with TMlec155 at two concentrations. […] After a further 3 hours, the serum cytokine response was determined.
Double antibody sandwich ELISA kits, purchased from R & D Systems Europe (Abingdon, UK), were used to quantitate murine plasma levels of TNFα, IL-1β, IL-6 and IL-10. […] A sensitive and specific radioimmunoassay to quantitate plasma levels of murine FPA was performed as previously reported^24.
Lipopolysaccharide (LPS) from Escherichia coli serotype 0111:B4 (Sigma) was injected intraperitoneally into 10-12 week old mice. For lethality studies, animals were closely monitored each day until either recovery or cessation of breathing. […]

“Also recorded” adds a separate entry of the source.

As to `NC(N)=NCCC[C@H](NC(=O)[C@@H]1CCCN1C(=O)[C@H](N)Cc1ccccc1)C(=O)CCl` [PPACK], the “effect on the results of the adhesion assays” value in data set [1] is given as “no effect”.

B1: TMlec155: Recombinant first 155 amino acids of murine TM, restricted to the lectin-like region, polyhistidine-tagged, expressed in Pichia pastoris (protein)
chain: LSALAKLQPTGSQCVEHECFALFQGPATFLDASQACQRLQGHLMTVRSSVAADVISLLLSQSSMDLGPWIGLQLPQGCDDPVHLGPLRGFQWVTGDNHTSYSRWARPNDQTAPLCGPLCVTVSTATEAAPGEPAWEEKPCETETQGFLCEFYFTA
modifications: left off: small tags and cut ends
notes: Recombinant first 155 amino acids of murine TM, restricted to the lectin-like region, polyhistidine-tagged, expressed in Pichia pastoris
In the case of B1, the figures for the “cells rescued from serum starvation-induced cell death” value in the data set on HUVECs (1 μg/ml), with HUVECs (10 μg/ml) and in the data set with HUVECs (20 μg/ml) were 2±0.6%, 18±7% and 34±14%, respectively. For the same molecule, in the data set on pERK1/2 and NFκB, the “Accumulation of NFκB” value is recorded as “similarly interfered”. Besides, the “Accumulation of pERK1/2” value in the data set on pERK1/2 and NFκB was “similarly interfered”. Besides, the “PMN Adhesion (# per 15 HPFs)” value in data set [2] (TM^LeD/LeD + TNF endothelial cells, recombinant TMlec155 3.6 mg) is 132 ± 90 # per 15 HPFs; in data set [2] (TM^LeD/LeD + TNF endothelial cells, recombinant TMlec155 7.2 mg), 153 ± 106 # per 15 HPFs; in data set [2] (resting TM^LeD/LeD endothelial cells, recombinant TMlec155 3.6 mg) it was 15 ± 6 # per 15 HPFs; in data set [2] (resting TM^LeD/LeD endothelial cells, recombinant TMlec155 7.2 mg) it was 12 ± 7 # per 15 HPFs. Moreover, in data set [2] (static adhesion assay, PMNs co-incubated with TMlec155), the “Adhesion of PMNs to TNFα-activated TM^Led/Led endothelial cells (effect in words)” value is given as “significantly reduced”. Moreover, the “Adhesion of PMNs to resting TM^Led/Led endothelial cells (effect in words)” value in data set [2] (static adhesion assay, PMNs co-incubated with TMlec155 at two concentrations) was “significantly decreased; also recorded: abrogated; also recorded: significant decrease in adhesion”. The “IL-1β levels (effect in words)” value in the data set with IL-1β (i.v. bolus 5 minutes later, 3 hours, compared with control) was “significantly suppressed”. This molecule also registered an IL-1β in the data set on IL-1β (treatment i.v. bolus 5 min later, plasma 3 hours later) of 286 ± 75 ng/mL.

Values taken from US7341992B2, “Lectin-like domain of thrombomodulin and its therapeutic use” (Vlaams Interuniversitair Instituut Voor Biotechnologie VZW, priority 2001, dated 2008).
